Common to all, as to assay: SPR
In test [1] the target is T1, dAPN-Q746K ectodomain, hFc-tagged (dog (Canis lupus familiaris), UniProt P79143 33-975, Q746K).
T1 sequence: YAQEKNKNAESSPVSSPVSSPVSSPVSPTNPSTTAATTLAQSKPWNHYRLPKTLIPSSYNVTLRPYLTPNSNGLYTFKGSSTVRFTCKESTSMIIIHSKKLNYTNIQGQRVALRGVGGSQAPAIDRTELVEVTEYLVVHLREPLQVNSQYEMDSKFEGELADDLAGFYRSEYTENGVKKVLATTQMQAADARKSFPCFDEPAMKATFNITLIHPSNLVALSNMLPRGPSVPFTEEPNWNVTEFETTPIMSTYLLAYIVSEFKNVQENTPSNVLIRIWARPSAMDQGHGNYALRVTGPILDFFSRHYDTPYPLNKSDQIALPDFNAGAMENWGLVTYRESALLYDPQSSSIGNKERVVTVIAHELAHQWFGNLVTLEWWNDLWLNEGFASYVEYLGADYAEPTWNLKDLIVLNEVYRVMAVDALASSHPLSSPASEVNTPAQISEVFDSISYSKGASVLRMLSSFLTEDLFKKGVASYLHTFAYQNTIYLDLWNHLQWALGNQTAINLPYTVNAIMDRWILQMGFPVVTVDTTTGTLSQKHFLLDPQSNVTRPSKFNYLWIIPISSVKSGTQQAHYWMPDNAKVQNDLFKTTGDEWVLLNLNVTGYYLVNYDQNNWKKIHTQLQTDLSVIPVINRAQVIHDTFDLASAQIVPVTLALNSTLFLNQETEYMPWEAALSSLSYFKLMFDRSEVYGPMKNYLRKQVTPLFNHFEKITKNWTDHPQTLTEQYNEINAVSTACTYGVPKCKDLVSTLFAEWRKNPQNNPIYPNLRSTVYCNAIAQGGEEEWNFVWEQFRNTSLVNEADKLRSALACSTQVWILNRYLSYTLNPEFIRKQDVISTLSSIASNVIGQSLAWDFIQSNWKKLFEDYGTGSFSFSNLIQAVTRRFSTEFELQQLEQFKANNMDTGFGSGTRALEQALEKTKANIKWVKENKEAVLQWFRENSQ

Test [2] concerns the target T2, dAPN-H751R ectodomain, hFc-tagged (dog (Canis lupus familiaris), UniProt P79143 33-975, H751R).
T2 sequence: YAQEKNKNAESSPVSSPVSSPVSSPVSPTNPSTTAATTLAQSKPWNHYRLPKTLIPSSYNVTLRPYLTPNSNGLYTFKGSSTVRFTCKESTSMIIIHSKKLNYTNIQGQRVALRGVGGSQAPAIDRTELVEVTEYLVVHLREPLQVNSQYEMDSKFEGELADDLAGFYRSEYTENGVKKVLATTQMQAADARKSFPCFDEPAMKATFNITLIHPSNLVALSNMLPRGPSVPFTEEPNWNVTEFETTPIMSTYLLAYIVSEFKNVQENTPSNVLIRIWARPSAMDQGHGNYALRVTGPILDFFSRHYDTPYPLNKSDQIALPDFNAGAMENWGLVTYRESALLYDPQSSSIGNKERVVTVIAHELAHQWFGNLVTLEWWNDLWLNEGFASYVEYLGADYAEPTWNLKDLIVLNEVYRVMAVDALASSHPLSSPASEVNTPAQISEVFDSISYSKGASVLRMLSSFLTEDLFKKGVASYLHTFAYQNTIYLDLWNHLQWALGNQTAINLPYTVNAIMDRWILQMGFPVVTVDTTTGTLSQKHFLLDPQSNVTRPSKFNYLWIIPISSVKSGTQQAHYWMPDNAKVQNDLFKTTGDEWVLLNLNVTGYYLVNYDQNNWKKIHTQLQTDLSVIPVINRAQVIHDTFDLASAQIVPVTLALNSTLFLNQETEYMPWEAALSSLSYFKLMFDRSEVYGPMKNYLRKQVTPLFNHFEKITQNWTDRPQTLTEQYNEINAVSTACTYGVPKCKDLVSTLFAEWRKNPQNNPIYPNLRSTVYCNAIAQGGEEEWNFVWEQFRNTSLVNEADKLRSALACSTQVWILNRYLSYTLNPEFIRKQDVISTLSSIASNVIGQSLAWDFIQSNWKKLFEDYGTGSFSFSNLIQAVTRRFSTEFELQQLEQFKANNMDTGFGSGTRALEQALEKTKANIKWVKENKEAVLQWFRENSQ

Test [3] has as its target T3, dAPN-Q746K-D750E ectodomain, hFc-tagged (dog (Canis lupus familiaris), UniProt P79143 33-975, Q746K | D750E).
T3 sequence: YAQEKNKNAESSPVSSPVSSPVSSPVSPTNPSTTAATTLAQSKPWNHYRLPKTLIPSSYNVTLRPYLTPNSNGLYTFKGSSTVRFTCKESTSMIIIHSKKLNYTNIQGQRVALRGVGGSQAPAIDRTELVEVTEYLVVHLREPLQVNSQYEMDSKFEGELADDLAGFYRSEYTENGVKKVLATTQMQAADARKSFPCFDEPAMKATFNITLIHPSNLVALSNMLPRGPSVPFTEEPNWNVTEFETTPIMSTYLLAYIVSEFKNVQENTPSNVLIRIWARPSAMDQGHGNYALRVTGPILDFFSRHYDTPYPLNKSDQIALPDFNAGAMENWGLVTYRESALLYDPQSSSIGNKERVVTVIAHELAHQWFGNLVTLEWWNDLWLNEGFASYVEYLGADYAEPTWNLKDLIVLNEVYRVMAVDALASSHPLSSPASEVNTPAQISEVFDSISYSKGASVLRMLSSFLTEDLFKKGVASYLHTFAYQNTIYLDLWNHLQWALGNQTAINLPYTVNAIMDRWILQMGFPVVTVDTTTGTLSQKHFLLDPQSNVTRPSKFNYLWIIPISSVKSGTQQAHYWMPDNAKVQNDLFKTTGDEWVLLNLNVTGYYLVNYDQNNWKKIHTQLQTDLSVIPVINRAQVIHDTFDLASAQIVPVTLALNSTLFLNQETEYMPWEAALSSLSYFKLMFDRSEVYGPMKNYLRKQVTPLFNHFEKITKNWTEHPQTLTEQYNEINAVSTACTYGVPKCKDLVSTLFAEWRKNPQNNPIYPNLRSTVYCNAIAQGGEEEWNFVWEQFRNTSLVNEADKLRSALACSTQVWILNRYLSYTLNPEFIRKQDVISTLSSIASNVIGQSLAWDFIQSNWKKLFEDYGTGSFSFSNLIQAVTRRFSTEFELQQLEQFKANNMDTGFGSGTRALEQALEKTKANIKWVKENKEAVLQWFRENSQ

One molecule from publication PMC11741606 (2025) can be followed below.

B1: TGEV RBD (receptor-binding domain of the transmissible gastroenteritis coronavirus spike protein) (domain or fragment)
chain: TANLNNGFYPVSSSEVGLVNKSVVLLPSFYTHTIVNITIDLGMKRSGYGQPIASTLSNITLPMQDNNTDVYCIRSDQFSVYVHSTCKSSLWDNIFKRNCTDVLDATAVIKTGTCPFSFDKLNNYLTFNKFCLSLSPVGANCKFDVAARTRTNEQVVRSLYVIYEEGDNIVGVPSD
With B1, the Kd was 333 nM in test [1], 241 nM in test [2] and 1540 nM in test [3].

In general, Kd refers to a measure of binding affinity in units of concentration.
